Results published in patent publication US8105605B2, “Allergen formulation” (Allergy Therapeutics (UK) Ltd., priority 1997, dated 2012).

How the values were obtained:
[1] = system: allergen specific antibodies to ovalbumin (XOA): IgG1, IgG2a, IgG2b; assay: ELISA of serum IgG1, IgG2a and IgG2b antibodies after subcutaneous immunisation and booster of mice; format: in vivo, BALB/c female mice; settings: BALB/c mice, 0.2 mL s.c., boosted at day 21, bled 14 days after booster
Method: (§1) TH1 inducing activity in mice can be equated with the production of IgG2a and IgG2b antibodies and the TH2 inducing activity with the production of IgG 1 antibodies and IgE antibodies.
(§2) Groups of 8 BALB/c female mice, 6-8 weeks of age, were injected subcutaneously in the inguinal area with 0.2 mL of one of the following vaccines:
(§3) XOA+Tyrosine: The XOA tyrosine adsorbate prepared in Preparation 2 above was diluted with an equal volume of phosphate buffered saline within 30 min prior to injection.
XOA+Tyrosine+MPL: The XOA tyrosine adsorbate prepared in Preparation 2 above was diluted with an equal volume of MPL®-AF at 500 μg/mL in phosphate buffered saline within 30 min prior to injection.
XOA+MPL: XOA was dissolved in phosphate buffered saline at 200 μg/mL and diluted with an equal volume of MPL®-AF at 500 μg/mL in phosphate buffered saline within 30 min prior to injection.
XOA Alone: XOA was dissolved at 200 μg/mL in phosphate buffered saline and diluted with an equal volume of phosphate buffered saline.
Twenty-one days later the four groups of mice were boosted with 0.2 mL of freshly prepared vaccines. Fourteen days following the booster the mice were bled and the sera separated and stored at −70° C. until assay.
(§4) The sera were assayed by conventional ELISA technique using horseradish conjugated goat anti-mouse IgG1, IgG2a, and IgG2b antibodies purchased from Southern Biotechnology, Inc. (Birmingham, Ala.) and used according to the manufacturer's instruction. The IgG1, IgG2a, and IgG2b titers represent the reciprocal serum dilution giving a reading of >0.1 OD units at A490. The serum IgE levels were measured using an anti-IgE capture ELISA followed by the use of a biotinylated ovalbumin probe. Binding was measured following the addition of a horseradish conjugated strepavidin preparation.

[2] = system: allergen specific IgE antibody (ovalbumin); assay: anti-IgE capture ELISA with biotinylated ovalbumin probe on serum of immunised mice; format: in vivo, BALB/c female mice; settings: BALB/c mice, 0.2 mL s.c., boosted at day 21, bled 14 days after booster; serum at 1/10 dilution
Method: as §1, §2, §3
XOA+Tyrosine+MPL: The XOA tyrosine adsorbate prepared in Preparation 2 above was diluted with an equal volume of MPL®-AF at 500 μg/mL in phosphate buffered saline within 30 min prior to injection. […]
as §4

B1: ovalbumin (protein, UniProt P01012 2-386, looked up)
Ovalbumin: GSIGAASMEFCFDVFKELKVHHANENIFYCPIAIMSALAMVYLGAKDSTRTQINKVVRFDKLPGFGDSIEAQCGTSVNVHSSLRDILNQITKPNDVYSFSLASRLYAEERYPILPEYLQCVKELYRGGLEPINFQTAADQARELINSWVESQTNGIIRNVLQPSSVDSQTAMVLVNAIVFKGLWEKAFKDEDTQAMPFRVTEQESKPVQMMYQIGLFRVASMASEKMKILELPFASGTMSMLVLLPDEVSGLEQLESIINFEKLTEWTSSNVMEERKIKVYLPRMKMEEKYNLTSVLMAMGITDVFSSSANLSGISSAESLKISQAVHAAHAEINEAGREVVGSAEAGVDAASVSEEFRADHPFLFCIKHIATNAVLFFGRCVSP
notes: ovalbumin (XOA), a food allergen from chicken eggs, 200 μg/mL in phosphate buffered saline diluted with an equal volume of PBS
[1]
  IgG1 titer (reciprocal serum dilution giving a reading of >0.1 OD units at A490): 6400
  IgG2a Titer (reciprocal serum dilution giving a reading of >0.1 OD units at A490): <100
  IgG2b Titer (reciprocal serum dilution giving a reading of >0.1 OD units at A490): <100
[2]
  IgE OD at 1/10 Dilution: 0.235 OD units at A490
